Data from PMC2173870 (The Journal of Cell Biology, 2002).
Where “and” joins values, the source holds several entries; their conditions need not be identical. Identical values can stand only once.

Target: the molecule itself
Test: SEC

RMKKKDEGSYDLGKKPILQQAPTNEFYA (peptide, UniProt P34901 175-202, looked up) [syndecan-4 cytoplasmic tail peptide, PIP2- mutant (Y192KK to LQQ)]
stoichiometry N: 4 and 6
